Experimental data: patent US20140378382A1 (WISCONSIN ALUMNI RESEARCH FOUNDATION, published 2014)
Read-outs that look alike come from different tables or passages of the source. Non-standard residues stand in square brackets, D forms with d. Primed or numbered codes have the meaning given here. No end group written: not given here. APC = aminopyrrolidine carboxylic acid (2-aminopyrrolidine-4-carboxylic acid); ACPC″ = 2-aminocyclopentane carboxylic acid (X); ACPC = 2-aminocyclopentane carboxylic acid; β3hS = N[C@@H](CO)CC(=O)O; Aib = CC(C)(N)C(=O)O

Assays:
[1] = biological target: T1, human parathyroid hormone receptor 1, wild-type (hPTHR-1) (human, UniProt Q03431 27-593); experiment: cell-based or functional assay
T1 sequence (looked up): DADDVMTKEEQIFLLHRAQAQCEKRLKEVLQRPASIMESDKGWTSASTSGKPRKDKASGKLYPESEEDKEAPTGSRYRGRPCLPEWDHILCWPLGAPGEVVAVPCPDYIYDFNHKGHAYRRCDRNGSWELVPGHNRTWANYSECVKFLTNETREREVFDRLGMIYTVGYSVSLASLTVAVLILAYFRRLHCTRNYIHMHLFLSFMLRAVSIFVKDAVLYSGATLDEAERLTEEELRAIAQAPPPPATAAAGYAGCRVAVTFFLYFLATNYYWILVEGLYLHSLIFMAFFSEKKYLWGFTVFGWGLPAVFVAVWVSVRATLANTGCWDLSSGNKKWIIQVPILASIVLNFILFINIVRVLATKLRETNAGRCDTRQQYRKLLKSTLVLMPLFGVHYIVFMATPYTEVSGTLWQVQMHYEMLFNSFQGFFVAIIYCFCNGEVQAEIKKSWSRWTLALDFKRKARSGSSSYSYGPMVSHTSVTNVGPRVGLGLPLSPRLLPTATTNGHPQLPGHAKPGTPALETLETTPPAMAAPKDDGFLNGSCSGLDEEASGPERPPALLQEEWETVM

[2] = biological target: T1, human parathyroid hormone receptor 1, …; experiment: cell-based or functional assay; remark: listed apart in the source
[3] = biological target: T2, rat parathyroid hormone receptor 1, wild-type (rPTHR-1) (rat, UniProt P25961 27-591); experiment: cell-based or functional assay
T2 sequence (looked up): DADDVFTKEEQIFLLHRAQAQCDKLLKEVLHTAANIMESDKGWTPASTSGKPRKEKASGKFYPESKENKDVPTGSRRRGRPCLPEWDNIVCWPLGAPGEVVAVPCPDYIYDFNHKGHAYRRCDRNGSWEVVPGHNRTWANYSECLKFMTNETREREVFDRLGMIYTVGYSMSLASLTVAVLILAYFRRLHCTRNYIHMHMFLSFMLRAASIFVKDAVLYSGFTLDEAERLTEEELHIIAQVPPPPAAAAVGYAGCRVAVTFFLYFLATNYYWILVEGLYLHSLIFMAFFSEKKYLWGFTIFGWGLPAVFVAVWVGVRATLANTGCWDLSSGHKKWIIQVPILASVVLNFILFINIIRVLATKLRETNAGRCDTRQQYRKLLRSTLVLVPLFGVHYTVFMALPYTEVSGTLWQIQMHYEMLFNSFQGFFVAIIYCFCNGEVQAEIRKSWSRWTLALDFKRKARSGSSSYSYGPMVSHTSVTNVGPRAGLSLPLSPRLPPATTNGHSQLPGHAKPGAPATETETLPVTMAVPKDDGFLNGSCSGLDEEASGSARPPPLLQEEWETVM

[4] = biological target: T1, human parathyroid hormone receptor 1, …; experiment: R0 state; 125I-PTH(1-34) displacement; COS-7 membranes, hPTHR-1, GTPγS
Description: (§1) ^aValues are means of n ≧4 experiments, each performed in duplicate.

[5] = biological target: T1, human parathyroid hormone receptor 1, …; experiment: as above; remark: listed apart in the source
Description: (§2) FIGS. 6A, 6B, 6C, 6D, 6E, and 6F constitute a series of graphs depicting binding of various analogs to the R⁰ and RG forms of human PTHR-1 (hPTHR-1). […] Data are means (±SEM) of n≧4 experiments, each performed in duplicate.

[6] = biological target: T2, rat parathyroid hormone receptor 1, …; experiment: R0 state; 125I-PTH(1-34) displacement; COS-7 membranes, rPTHR-1, GTPγS
Description: (§3) Binding inhibition constants are expressed as the -log (IC50) and corresponding nanoMolar (nM) values. Values are means (±SEM) of the number of experiments shown (n), each performed in duplicate.

[7] = biological target: T2, rat parathyroid hormone receptor 1, …; experiment: RG state; 125I-M-PTH(1-15) displacement; COS-7 membranes, rPTHR-1 + Gαs mutant
Description: as §3

[8] = biological target: T1, human parathyroid hormone receptor 1, …; experiment: ratio of R0 IC50 to RG IC50, hPTHR-1
[9] = biological target: T2, rat parathyroid hormone receptor 1, …; experiment: ratio of R0 IC50 to RG IC50, rPTHR-1
Description: as §3

[10] = biological target: T1, human parathyroid hormone receptor 1, …; experiment: RG state; 125I-M-PTH(1-15) displacement; COS-7 membranes, hPTHR-1 + Gαs mutant
Description: as §1

[11] = biological target: T1, human parathyroid hormone receptor 1, …; experiment: as above; remark: listed apart in the source
Description: as §2

[12] = biological target: T1, human parathyroid hormone receptor 1, …; experiment: cell-based or functional assay; remark: listed apart in the source
delNT PTHR1 = biological target: T3, delNT PTHR1 (human, UniProt Q03431 27-593); experiment: cell-based or functional assay
T3 sequence (looked up): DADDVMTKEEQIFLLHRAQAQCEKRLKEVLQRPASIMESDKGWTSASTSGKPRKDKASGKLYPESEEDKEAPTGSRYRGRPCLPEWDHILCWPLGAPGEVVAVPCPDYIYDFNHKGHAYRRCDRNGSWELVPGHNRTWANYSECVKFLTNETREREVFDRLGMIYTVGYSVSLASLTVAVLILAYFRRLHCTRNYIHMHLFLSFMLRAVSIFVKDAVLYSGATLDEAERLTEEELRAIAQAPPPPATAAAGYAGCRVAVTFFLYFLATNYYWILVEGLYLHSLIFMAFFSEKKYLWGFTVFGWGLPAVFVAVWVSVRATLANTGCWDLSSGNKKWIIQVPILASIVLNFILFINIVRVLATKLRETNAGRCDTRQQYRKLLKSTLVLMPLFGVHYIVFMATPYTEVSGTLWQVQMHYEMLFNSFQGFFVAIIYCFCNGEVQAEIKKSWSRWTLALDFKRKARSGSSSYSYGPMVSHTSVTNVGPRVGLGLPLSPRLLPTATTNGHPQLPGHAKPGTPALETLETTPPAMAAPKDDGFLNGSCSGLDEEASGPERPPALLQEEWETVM

[13] = biological target: T4, PTHR-1 (species and cells not stated for the assay) (Homo sapiens (Human), UniProt Q03431 27-593); experiment: cell-based or functional assay
T4 sequence: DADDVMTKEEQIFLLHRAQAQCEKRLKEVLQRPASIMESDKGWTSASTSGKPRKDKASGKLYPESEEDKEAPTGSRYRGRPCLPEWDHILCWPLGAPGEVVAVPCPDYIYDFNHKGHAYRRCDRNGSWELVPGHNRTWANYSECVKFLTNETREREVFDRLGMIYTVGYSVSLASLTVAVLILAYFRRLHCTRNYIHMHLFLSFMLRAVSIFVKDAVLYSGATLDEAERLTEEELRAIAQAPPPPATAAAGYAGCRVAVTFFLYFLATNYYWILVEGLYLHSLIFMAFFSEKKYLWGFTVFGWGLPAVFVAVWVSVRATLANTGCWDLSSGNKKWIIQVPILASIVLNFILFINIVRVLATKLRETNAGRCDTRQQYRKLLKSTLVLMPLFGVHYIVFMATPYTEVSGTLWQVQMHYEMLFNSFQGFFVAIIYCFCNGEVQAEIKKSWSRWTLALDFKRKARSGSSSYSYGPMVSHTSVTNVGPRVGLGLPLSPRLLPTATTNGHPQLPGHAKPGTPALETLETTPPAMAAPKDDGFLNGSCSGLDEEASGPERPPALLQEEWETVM

[14] = biological target: T4, PTHR-1 (species and cells not stated …); experiment: cell-based or functional assay; remark: listed apart in the source
[15] = biological target: parathyroid hormone receptor-2 (PTHR-2); experiment: cell-based or functional assay
Sequence of parathyroid hormone receptor-2 (PTHR-2) (P49190 whole entry): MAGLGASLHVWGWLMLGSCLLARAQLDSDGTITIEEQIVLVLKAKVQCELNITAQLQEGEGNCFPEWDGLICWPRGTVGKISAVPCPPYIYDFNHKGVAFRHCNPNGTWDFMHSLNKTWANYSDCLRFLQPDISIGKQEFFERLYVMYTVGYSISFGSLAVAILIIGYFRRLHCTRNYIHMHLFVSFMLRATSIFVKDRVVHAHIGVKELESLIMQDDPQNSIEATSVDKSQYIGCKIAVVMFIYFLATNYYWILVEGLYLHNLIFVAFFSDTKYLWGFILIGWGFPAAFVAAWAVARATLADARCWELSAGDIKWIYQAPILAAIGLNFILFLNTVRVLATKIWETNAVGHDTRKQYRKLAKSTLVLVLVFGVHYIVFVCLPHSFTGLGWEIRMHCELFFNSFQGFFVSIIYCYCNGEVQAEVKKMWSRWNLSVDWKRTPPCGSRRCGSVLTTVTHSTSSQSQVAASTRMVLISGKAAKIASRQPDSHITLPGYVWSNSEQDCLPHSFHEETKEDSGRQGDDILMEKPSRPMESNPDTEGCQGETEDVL

[16] = biological target: T4, PTHR-1 (species and cells not stated …); experiment: cell-based or functional assay; remark: listed apart in the source
[17] = biological target: T1, human parathyroid hormone receptor 1, …; experiment: R0 binding, GP2.3 membranes (human PTHR-1); tracer not stated here
[18] = biological target: T1, human parathyroid hormone receptor 1, …; experiment: cell-based or functional assay; remark: listed apart in the source
[19] = biological target: T4, PTHR-1 (species and cells not stated …); experiment: cell-based or functional assay; remark: listed apart in the source

B1: B3 (peptide)
peptide: SVSEIQLMHNLGKHLNSMERVEWLRKKLQDVQNF-NH2
modifications: not fully specified (residue 32); printed as SVSEIQLMHNLGKHLNSMERVEWLRKKLQDVQNF-NH2; also: three β3 residues, positions not given here in text
notes: also called α/β-peptide B3
cAMP EC50 [1]: 0.11 nM | cAMP Max [1]: 1.08 relative to PTH(1-34) | cAMP EC50 [2]: 0.11 nM | cAMP Max [2]: 234 cps × 10^-3 | cAMP pEC50 [2]: 9.94 | cAMP EC50 [3]: 0.55 nM | cAMP Max [3]: 69 cps × 10-3 | cAMP pEC50 [3]: 9.26 | IC50 [4]: 80 nM | -log (IC50) [5]: 7.1 | IC50 [5]: 80 nM | -log (IC50) [6]: 6.95 | IC50 [6]: 111 nM | -log (IC50) [7]: 8.07 | IC50 [7]: 8.6 nM

B2: D7 (peptide)
peptide: SVSEIQLMHNLGKWLNSMERVEWLRKKLQDVHNF-NH2
modifications: not fully specified (residue 14); printed as SVSEIQLMHNLGKWLNSMERVEWLRKKLQDVHNF-NH2; also: seven β3 residues, positions not given here in text
notes: also called α/β-peptide D7
cAMP EC50 [1]: 0.39 nM | cAMP Max [1]: 0.85 relative to PTH(1-34) | Fold PTH(1-34) [2]: 2.26 fold | cAMP EC50 [2]: 0.39 nM | cAMP Max [2]: 184 cps × 10^-3 | cAMP pEC50 [2]: 9.41 | Fold PTH(1-34) [3]: 3.89 fold | cAMP EC50 [3]: 1.62 nM | cAMP Max [3]: 40 cps × 10-3 | cAMP pEC50 [3]: 8.79 | R^0/RG [8]: 15 ratio | R^0/RG [9]: 7 ratio | IC50 [4]: 3.5 nM | -log (IC50) [5]: 8.45 | IC50 [5]: 3.5 nM | -log (IC50) [6]: 7.83 | IC50 [6]: 14.8 nM | IC50 [10]: 0.24 nM | -log (IC50) [11]: 9.63 | IC50 [11]: 0.24 nM | -log (IC50) [7]: 8.69 | IC50 [7]: 2 nM

SVSEIQ[ACPC]MHNLGKHLNSMERVEWLRKKLQDVHNF-NH2 [ACPC(7) PTH(1-34)]
Fold PTH [12]: 1.3 fold | cAMP EC50 [12]: 0.12 nM | Fold PTH (delNT PTHR1): 74 fold | cAMP EC50 (delNT PTHR1): 4600 nM | cAMP response PTH1R/PTH2R [13]: 44 ratio

[ACPC]VSE[ACPC]Q[ACPC]MHNLGKHLNSMERVEWLRKKLQDVHNF-NH2 [ACPC(1,5,7)]
Fold PTH [14]: 36.7 fold | cAMP EC50 [14]: 2.99 nM | cAMP response PTH2R/PTH1R [15]: 11 ratio

[ACPC″]VSE[ACPC″]Q[ACPC″]MHNLGK[ACPC″]LNS[ACPC″]ERV[APC]WLR[APC]KLQ[ACPC″]VHN[ACPC″]-NH2 [FcycD6_ACPC(1,5,7)]
Fold PTH [14]: 234 fold | cAMP EC50 [14]: 19.1 nM | cAMP EC50 [16]: 25.9 nM | cAMP response PTH2R/PTH1R [15]: 45 ratio

[β3hS]VSE[ACPC″]Q[ACPC″]MHNLGK[ACPC″]LNS[ACPC″]ERV[APC]WLR[APC]KLQ[ACPC″]VHN[ACPC″]-NH2 [FcycD6_β3Ser(1), ACPC(5,7)]
cAMP EC50 [16]: 0.79 nM | IC50 [17]: 89.4 nM

[β3hS]V[Aib]EIQ[ACPC″]MHNLGK[ACPC″]LNS[ACPC″]ERV[APC]WLR[APC]KLQ[ACPC″]VHN[ACPC″]-NH2 [FcycD6_β3Ser(1), Aib(3), ACPC (7)]
cAMP EC50 [16]: 0.21 nM | IC50 [17]: 1.54 nM

AVSEHQLLHDKGK[ACPC]IQD[ACPC]RRR[APC]FLH[APC]LIA[ACPC]IHT[ACPC]-NH2 [CycD6 hPTHrP(1-34)]
cAMP EC50 [18]: 0.65 nM

[ACPC]VSE[ACPC]Q[ACPC]LHDKGKSIQDLRRRFFLHKLIAEIHTA-NH2 (not fully specified; also: D6 β3 residues, positions not shown (marking lost)) [D6 hPTHrP(1-34) ACPC(1,5,7)]
cAMP EC50 [18]: 1.03 nM

[ACPC]VSE[ACPC]Q[ACPC]LHDKGK[ACPC]IQD[ACPC]RRR[APC]FLH[APC]LIA[ACPC]IHT[ACPC]-NH2 [CycD6 hPTHrP(1-34) ACPC(1,5,7)]
cAMP EC50 [18]: 1.08 nM

B3: bPTH(7-34)dTrp12 (peptide)
peptide: FMHNL[dW]KHLSSMERVEWLRKKLQDVHNF-NH2
modifications: N-terminus assumed
SMILES: CSCC[C@H](NC(=O)[C@H](CO)NC(=O)[C@H](CO)NC(=O)[C@H](CC(C)C)NC(=O)[C@H](Cc1c[nH]cn1)NC(=O)[C@H](CCCCN)NC(=O)[C@@H](Cc1c[nH]c2ccccc12)NC(=O)[C@H](CC(C)C)NC(=O)[C@H](CC(N)=O)NC(=O)[C@H](Cc1c[nH]cn1)NC(=O)[C@H](CCSC)NC(=O)[C@@H](N)Cc1ccccc1)C(=O)N[C@@H](CCC(=O)O)C(=O)N[C@@H](CCCNC(=N)N)C(=O)N[C@H](C(=O)N[C@@H](CCC(=O)O)C(=O)N[C@@H](Cc1c[nH]c2ccccc12)C(=O)N[C@@H](CC(C)C)C(=O)N[C@@H](CCCNC(=N)N)C(=O)N[C@@H](CCCCN)C(=O)N[C@@H](CCCCN)C(=O)N[C@@H](CC(C)C)C(=O)N[C@@H](CCC(N)=O)C(=O)N[C@@H](CC(=O)O)C(=O)N[C@H](C(=O)N[C@@H](Cc1c[nH]cn1)C(=O)N[C@@H](CC(N)=O)C(=O)N[C@@H](Cc1ccccc1)C(N)=O)C(C)C)C(C)C
EC50(+)inhibitor/EC50(-)inhibitor [19]: 60.1 ratio | EC50 of PTH(1-34) signaling with 1 µM inhibitor [19]: 9.47 nM
